This note sets out measurements from patent US20160046721A1.

Test [1] addresses human ER-α36 (human) (UniProt P03372). In words: flow cytometry on MHCC-97H cells, isotype control; second lower panel without sample name, assigned by peak height against histogram 3 of the overlay. On the technique in general: A flow cytometer gives signals particle by particle.
For test [2] the target is unchanged. In words: flow cytometry on MCF-7 cells, isotype control; lower left panel, which carries no sample name: assigned by peak height and by the order of the samples.
The target of another test is ER-α36 LBD (3T3 Clone#4). In words: flow cytometry on 3T3 cells, ER-α36 LBD Clone#4, isotype control at 2.5 µg/ml.
In test [3] the target is human ER-α36 (human) (UniProt P03372). The test is described as follows: flow cytometry on SK-BR-3 cells, isotype control; lower left panel without sample name, assigned by the order of the samples.
Test [4] shares this target. The test is described as follows: flow cytometry on K562 cells, isotype control, concentration not given.
The target is the same in test [5]. In words: flow cytometry on MHCC-97H cells, isotype control; first lower panel without sample name, assigned by peak height (about 75) against histogram 4 of the overlay.
For test [6] the target is unchanged. The test is described as follows: flow cytometry on 3T3 cells, ER-α36 Full length Clone#2, isotype control at 2.5 µg/ml.

human ER-α36 (human), sequence (P03372 other isoform, or with tags, fused parts or gaps): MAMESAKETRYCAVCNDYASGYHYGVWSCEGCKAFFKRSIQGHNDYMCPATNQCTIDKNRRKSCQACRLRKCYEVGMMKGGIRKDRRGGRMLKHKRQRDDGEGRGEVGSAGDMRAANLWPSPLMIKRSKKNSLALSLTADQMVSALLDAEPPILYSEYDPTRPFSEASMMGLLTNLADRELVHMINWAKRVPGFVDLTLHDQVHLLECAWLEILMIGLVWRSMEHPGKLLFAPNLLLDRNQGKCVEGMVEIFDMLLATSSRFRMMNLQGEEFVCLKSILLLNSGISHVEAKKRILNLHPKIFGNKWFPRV
ER-α36 LBD (3T3 Clone#4), sequence (single chain, as listed by the source): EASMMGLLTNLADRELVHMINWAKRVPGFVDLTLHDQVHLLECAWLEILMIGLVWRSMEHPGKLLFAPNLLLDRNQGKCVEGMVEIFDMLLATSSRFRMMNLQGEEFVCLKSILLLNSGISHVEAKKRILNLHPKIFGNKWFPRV

Regarding mouse IgG2b (antibody), the Yellow-A subset (percent of cells in the gate) turned out to be 5.68% with human ER-α36 (human) [1], 19.9% in the test with human ER-α36 (human) [2], 13.1% in the test with human ER-α36 (human) [3] and 6.82% in the test with human ER-α36 (human) [5]. The %Gated (region B) came out at 4.93% in the test with ER-α36 LBD (3T3 Clone#4) and 4.86% with human ER-α36 (human) [6]. In the test with human ER-α36 (human) [4], this substance gave a Geom. Mean FL1 of 24.3.
